Assay results: patent publication US10464978B2, “Peptides and combination of peptides for use in immunotherapy against ovarian cancer and other cancers” (immatics biotechnologies GmbH, priority 2015, dated 2019)

target: HLA-A*02:01 (Homo sapiens, UniProt P04439, D140Y/D185E/D98H/E176V/E277Q/G131W/G231S/I119V/I121R/I166T/I218V/L300P/L318F/N151K/N90K/P208A/P217A/Q86G/Q94H/R138H/R169H/T345S); experiment: MHC binding assay: UV-ligand exchange with beta2m ELISA (peptide exchange yield); conditions: binding to HLA-A*02:01
Excerpt: Candidate peptides for T cell based therapies according to the present invention were further tested for their MHC binding capacity (affinity). The individual peptide-MHC complexes were produced by UV-ligand exchange, where a UV-sensitive peptide is cleaved upon UV-irradiation, and exchanged with the peptide of interest as analyzed. Only peptide candidates that can effectively bind and stabilize the peptide-receptive MHC molecules prevent dissociation of the MHC complexes. To determine the yield of the exchange reaction, an ELISA was performed based on the detection of the light chain ([…]) of stabilized MHC complexes. The assay was performed as generally described in Rodenko et al. (Rodenko et al., 2006).
96 well MAXISorp plates (NUNC) were coated over night with 2 ug/ml streptavidin in PBS at room temperature, washed 4× and blocked for 1 h at 37° C. in 2% BSA containing blocking buffer. […] Peptide-MHC monomers of the UV-exchange reaction were diluted 100 fold in blocking buffer. Samples were incubated for 1h at 37° C., washed four times, incubated with 2 ug/ml HRP conjugated anti-β2m for 1h at 37° C., washed again and detected with TMB solution that is stopped with […]. Absorption was measured at 450 nm. Candidate peptides that show a high exchange yield (preferably higher than 50%, most preferred higher than 75%) are generally preferred for a generation and production of antibodies or fragments thereof, and/or T cell receptors or fragments thereof, as they show sufficient avidity to the MHC molecules and prevent dissociation of the MHC complexes.

Row | Substance | Peptide exchange (MHC class I binding score, peptide exchange yield)
1 | 2 (SLLEADPFL; listed as Homo sapiens) [compound 2] | “+++” (≥50 = +++)
2 | 3 (SLASKLTTL; listed as Homo sapiens) [compound 3] | “++++” (≥75% = ++++)
3 | 4 (GIMEHITKI; listed as Homo sapiens) [compound 4] | “++++” (≥75% = ++++)
4 | 6 (VLVSDGVHSV; listed as Homo sapiens) [compound 6] | “+++” (≥50 = +++)
5 | 9 (GAAKDLPGV; listed as Homo sapiens) [compound 9] | “++” (≥20% = ++)
6 | 10 (FLATFPLAAV; listed as Homo sapiens) [compound 10] | “++++” (≥75% = ++++)
7 | 12 (SLWPDPMEV; listed as Homo sapiens) [compound 12] | “+++” (≥50 = +++)
8 | 13 (YLMDESLNL; listed as Homo sapiens) [compound 13] | “+++” (≥50 = +++)
9 | 15 (VLLTFKIFL; listed as Homo sapiens) [compound 15] | “++” (≥20% = ++)
10 | 16 (VLFQGQASL; listed as Homo sapiens) [compound 16] | “+++” (≥50 = +++)
11 | 17 (GLLPGDRLVSV; listed as Homo sapiens) [compound 17] | “+++” (≥50 = +++)
12 | 18 (YLVAKLVEV; listed as Homo sapiens) [compound 18] | “++” (≥20% = ++)
13 | 19 (FMVDNEAIYDI; listed as Homo sapiens) [compound 19] | “++++” (≥75% = ++++)
14 | 20 (RMIEYFIDV; listed as Homo sapiens) [compound 20] | “+++” (≥50 = +++)
15 | 22 (IMEENPGIFAV; listed as Homo sapiens) [compound 22] | “+++” (≥50 = +++)
16 | 23 (VLLDDIFAQL; listed as Homo sapiens) [compound 23] | “+++” (≥50 = +++)
17 | 24 (SLSDGLEEV; listed as Homo sapiens) [compound 24] | “++” (≥20% = ++)
18 | 25 (FLPDEPYIKV; listed as Homo sapiens) [compound 25] | “+++” (≥50 = +++)
19 | 26 (ALLELAEEL; listed as Homo sapiens) [compound 26] | “+++” (≥50 = +++)
20 | 27 (ILADIVISA; listed as Homo sapiens) [compound 27] | “+++” (≥50 = +++)
21 | 29 (KMLGIPISNILMV; listed as Homo sapiens) [compound 29] | “+++” (≥50 = +++)
22 | 30 (LILDWVPYI; listed as Homo sapiens) [compound 30] | “+++” (≥50 = +++)

Row | Substance | Peptide exchange (MHC class I binding score, peptide exchange yield)
23 | 32 (KLDDLTQDLTV; listed as Homo sapiens) [compound 32] | “++” (≥20% = ++)
24 | 33 (VLLSLLEKV; listed as Homo sapiens) [compound 33] | “++” (≥20% = ++)
25 | 34 (ILVEADSLWVV; listed as Homo sapiens) [compound 34] | “+++” (≥50 = +++)
26 | 35 (KINDTIYEV; listed as Homo sapiens) [compound 35] | “+++” (≥50 = +++)
27 | 36 (YVLEDLEVTV; listed as Homo sapiens) [compound 36] | “++” (≥20% = ++)
28 | 39 (SVAPNLPAV; listed as Homo sapiens) [compound 39] | “+++” (≥50 = +++)
29 | 40 (TLLVKVFSV; listed as Homo sapiens) [compound 40] | “+++” (≥50 = +++)
30 | 42 (VLLQKIVSA; listed as Homo sapiens) [compound 42] | “+++” (≥50 = +++)
31 | 43 (VLSSLEINI; listed as Homo sapiens) [compound 43] | “++” (≥20% = ++)
32 | 44 (ILDPISSGFLL; listed as Homo sapiens) [compound 44] | “++” (≥20% = ++)
33 | 46 (ILTEENIHL; listed as Homo sapiens) [compound 46] | “+++” (≥50 = +++)
34 | 48 (ALAELYEDEV; listed as Homo sapiens) [compound 48] | “+++” (≥50 = +++)
35 | 49 (YLPAVFEEV; listed as Homo sapiens) [compound 49] | “+++” (≥50 = +++)
36 | 50 (SLSELEALM; listed as Homo sapiens) [compound 50] | “+++” (≥50 = +++)
37 | 52 (FLLAHGLGFLL; listed as Homo sapiens) [compound 52] | “++++” (≥75% = ++++)
38 | 53 (KMIETDILQKV; listed as Homo sapiens) [compound 53] | “++++” (≥75% = ++++)
39 | 56 (KLYEGIPVLL; listed as Homo sapiens) [compound 56] | “++++” (≥75% = ++++)
40 | 57 (TLAELQPPVQL; listed as Homo sapiens) [compound 57] | “+++” (≥50 = +++)
41 | 59 (IMEDIILTL; listed as Homo sapiens) [compound 59] | “+++” (≥50 = +++)
42 | 60 (SLTIDGIYYV; listed as Homo sapiens) [compound 60] | “++++” (≥75% = ++++)
43 | 62 (VLLDVSAGQLLM; listed as Homo sapiens) [compound 62] | “++++” (≥75% = ++++)
44 | 66 (FLDENIGGVAV; listed as Homo sapiens) [compound 66] | “+++” (≥50 = +++)

Results, then the substance that gave them:

Row | Peptide exchange (MHC class I binding score, peptide exchange yield) | Substance
45 | “+++” (≥50 = +++) | 1 (SLMEPPAVLLL; listed as Homo sapiens) [compound 1]
46 | “+++” (≥50 = +++) | 5 (HLTEVYPEL; listed as Homo sapiens) [compound 5]
47 | “++++” (≥75% = ++++) | 7 (SLVGLLLYL; listed as Homo sapiens) [compound 7]
48 | “++++” (≥75% = ++++) | 8 (FTLGNVVGMYL; listed as Homo sapiens) [compound 8]
49 | “+++” (≥50 = +++) | 11 (KIFEMLEGV; listed as Homo sapiens) [compound 11]
50 | “+++” (≥50 = +++) | 14 (AAYGGLNEKSFV; listed as Homo sapiens) [compound 14]
51 | “++” (≥20% = ++) | 21 (VLDELDMEL; listed as Homo sapiens) [compound 21]
52 | “+++” (≥50 = +++) | 28 (QLLDETSAITL; listed as Homo sapiens) [compound 28]
53 | “++” (≥20% = ++) | 31 (YLAPELFVNV; listed as Homo sapiens) [compound 31]
54 | “+++” (≥50 = +++) | 38 (FLLEDDIHVS; listed as Homo sapiens) [compound 38]
55 | “+++” (≥50 = +++) | 41 (SLMPHIPGL; listed as Homo sapiens) [compound 41]
56 | “+++” (≥50 = +++) | 45 (SLWQDIPDV; listed as Homo sapiens) [compound 45]
57 | “++” (≥20% = ++) | 47 (ILLSVPLLVV; listed as Homo sapiens) [compound 47]
58 | “++++” (≥75% = ++++) | 51 (LLPDLEFYV; listed as Homo sapiens) [compound 51]
59 | “+++” (≥50 = +++) | 54 (SLLEQGKEPWMV; listed as Homo sapiens) [compound 54]
60 | “++++” (≥75% = ++++) | 55 (SLLDLETLSL; listed as Homo sapiens) [compound 55]
61 | “++++” (≥75% = ++++) | 61 (FLQGYQLHL; listed as Homo sapiens) [compound 61]
62 | “++” (≥20% = ++) | 63 (YLLPSGGSVTL; listed as Homo sapiens) [compound 63]
63 | “++” (≥20% = ++) | 64 (YAAPGGLIGV; listed as Homo sapiens) [compound 64]
